# Source: a protein production outcome set (Wang et al. 2014)
# Assay: label from the status in PepcDB records
row,Sequence,protein production
1,MSSEVQKGPRALTVGRGDGRIWGMSSAERLARIYRRLDLVETPAVDLSHPVVAVDAGWVFDESLIKALAGREGAVLVDDAGRAVAVHAPADLAYAASEALAAGNDPAGLDPRFTRLTALELGSAYNSALRKREPPVLERLTPETVRAVEKRLFQGSYKGVTDFVTKYVWPAPARVVTRWCALAKMTPNQVTFIGFVMVLAATWLFWHGHFGWGLVCAWIMTFLDTVDGKLARVTLTSSKWGNVFDHGIDLVHPPFWWWAWFVGVYAVGQEIPYAALSLAIVVGGYVAQRVEEGIFLALFKLEMHAWRPFDSFFRLITARRNPNLILLTGCAMVGRPDLGFTLVAIWTAVCFVVHAIQILQGLMAPKGSIQSWLAK,failed
2,MSSFRSAWAGAPAGIAVARTGQSVPLLNAAAALAVAMAVGGWLSGARHASAIDATQIESWRAMVAQAMEPQALRQLRQLARGGSTPARTALGEALLDSRDASLRHEGVRWLEAAAQPADGAPGDARAQLALGKALLLGTGGVARDYPRALHLLRQAADRGDAAAAYYLGLMYRSGYGTAANTALAAHWFDGAARHGIPAAMFMLANAYRDGDGVPRDEARALALYEQAAEHELPEAVQALAMAYQNGELGLARDDAAFRKQWLETAHALKHPALTP,failed
3,MSSFSLAVRDSSTMLRRNLLHARRYPSLTLNLLLTPVMLLLLFVYIFGDTMSGGAGRSAYIAYIVPGILLMTIGSTTIGTAVSVSTDMNEGIIARFRTMAIHRSSVLFGHVAGSVLQAIMSVVLVGAVGVAMGFRSTDATVLEWLAAFGLLALFALAFTWIAVGMGLGSPNAEAASNNAMPLILLPLISSAFVPLDSMPGWFQPIAEYQPFTPAIETLRGLLLGTEIGNNWWIALAWCLGLTVLGHRWSKAQFNRDPK,failed
4,MSSKQWRWIPNALTFLRMVLIVPFAGALLEGNYRLSLVIFFVAALTDAFDGFLARHFNWRSRLGAVADPLADKALLISAYLMLTITGVLPLWLFALVLGRDLVIVCGGLAFHYGIGRFDMEPSIPGKINTFVQILVALAIIILLAGLPMQPWVIDTGIWLVAVSALVSGGHYVAVWSLRAWRAKRS,failed
5,MSSKRLVIVGGGITGLAAAYYAERAFPDLNITLLEAGERLGGKVATYREDGFTIERGPDSYVARKHILTDLIEAIGLGEKLVRNNTSQAFILDTGGLHPIPKGAVMGIPTDLDLFRQTTLLTEEEKQEVADLLLHPSDSLRIPEQDIPLGEYLRPRLGDALVEKLIEPLLSGIYAGNIDQMSTFATYPQFVANEQKAGSLFEGMRLMRPLDQLPQTPQTTIKATGQFLSLETGLESLIERLEEVLERSEIRLETPLLAISREDGRYRLKTDHGPEYADYVLLTIPHPQVVQLLPDAHLPELEQLTTHSTATVTMIFDQQQSLPIEGTGFVVNRRAPYSITACTAIDQKWNHSAPDHTVLRAFVGRPGNDHLVHESDEVLQQAVLQDLEKICGRTLEPKQVIISRLMDGLPAYTVGHADRIQRVREEVLAQYPGIYLAGLAYDGVGLPDCVASAKTMIESIELEQSHTDESVNET,not failed
6,MSSLALRSPALALALTLGGLLLCGPVQAQQANSANDMVGRMQYRISELERLVQDLTGKVEQSLYENRQLQTKLENAQSDIDFRLNALESAGPAAAAPANSVPSSARPTASAGAGKQGTPAPAEGVLGFPGKTAPAQGAASAARPAAAGALPAGSENDQYNYAFSLLRNADYPAAEQAFKAFLDQHPKGSLAGNAQYWLGETYYVRGDYEQAAVAFMGGYQSHPDSSKGPDNLLKLGLAMANLGKSKEACAAFGRLESQYPKAADAIKRRAKEGMSKLGC,failed
7,MSSLGSRSSTSIQPVILCGGSGTRLWPLSRQSYPKQFMPLLGGRSLLALTLERVSGLSSHPWCVASTEHRFLVIDAFEQCQLNGQVLLEPSARNTAAAIAVAALHAEDDALLLFCPADHYIPDAPAFVERVRQAQVAALDGALVTFGVFPTYPSSAYGYIEASAPWQDSGALHVQRFIEKPSATQAAELLLKGNMYWNAGIFLGLAREWRRALELHAPDILAACRDALREAESPVISRSGQTTVQSVVLHEPSFDACRSQSIDYAVMEHHRPICAVPFNGAWSDVGSWNAVADLSSADDKGNSSQGDAHLFDCQRTYVHAAGRRPVVALGLEDVCIVDTDDAVLVMPMSRAEDIKSVVGQLTDRSVAQALLHRRVARPWGWYDSLDQGERFQVKRIGVKPGASLSLQLHHHRAEHWTVVKGTAEITCGDRVFLLSENQSTYIPLGQRHRLHNPGKVELEIIEVQSGSYLAEDDIVRLEDNYGRTAPHCPGPAEADSTLIEQ,failed
8,MSSLKDNYQSKVKAYQPSPPYVLNCIKAFLVGGLICTIGQAFQNFYMAVFHFDEKTAGNPTVATLILISALLTGLGVYDRIGQFAGAGSAVPVTGFANSMTSAALEHKSEGYVLGVGTNMFKLAGNVIVFGVVAAYIVGMIRFAFDKLF,failed
9,MSSLLPEKWGEALERVHDKVGHFLTRVMPWKKQEHFPERITADTLPAFMQSGGPLLDMHETADELIIRAEVPGLKNDDFSVGIVGRRLTIKGEKNIVRERKGGDGCLISECRYGSFARTLQLPYEIDEKAIAADLKHGVLTIRLPKPEKGRHARYRVPIS,failed
10,MSSLMIKLNLNYKLITKKTLPKLFYWGLGIVFFFLAPTTNAGSLSPYTTKELEQLEREFIQLINQSDSVERNPLASQYINSIGKKLAHYGRIKTPYFFIVKSKEINAFAGPGGYIGINTQLILTSSNESELAAVMAHEIAHVRLHHLYSIIEHQKQMRVPLLASILASAALGVLNPTVGMGAMMASVSGFSQDNINFTRSKEKEADRIGIDMLIKAGFNPQGMAAFFNKMQENSRYYYTANIPAILRTHPLDADRIAEAENRTSRLPKKHYTDSLDYALFKELIRVSVASNNKQILDYYEHHCHKKNPATACQYGYVLALLNNNNFQKAAEKLNPLLLQDNSNLNFQIAMAQAELGLSQYQSALSRLAELQNNFPDNYAALMAYAQGLLTANQPQKATAVLLKGSRQYKEDLPLCRELARAQAESHQKSYAYFTQAQCLLLEGQKRGAIAQLKVAQKLAKRDAYLSARISAKIDEIKFMVENLEHHHHHH,failed
11,MSSLNIKQGSDAHFPDYPLASPSNNEIDLLNLISVLWRAKKTVMAVVFAFACAGLLISFILPQKWTSAAVVTPPEPVQWQELEKTFTKLRVLDLDIKIDRTEAFNLFIKKFQSVSLLEEYLRSSPYVMDQLKEAKIDELDLHRAIVALSEKMKAVDDNASKKKDEPSLYTSWTLSFTAPTSEEAQTVLSGYIDYISALVVKESIENVRNKLEIKTQFEKEKLAQDRIKMKNQLDANIQRLNYSLDIANAAGIKKPVYSNGQAVKDDPDFSISLGADGIERKLEIEKAVTDVAELNGELRNRQYLVEQLTKANINDVNFTPFKYQLSPSLPVKKDGPGKAIIVILSALIGGMVACGSVLLRYAMASRKQDAMMADHLV,not failed
12,MSSLNNEEWDLLISGKKATLQYPIPLLCYPAPEVVSIAQIIDHTQLSLSATGSQIDVLCAEAKEYGFATVCVRPDYVSRAVQYLQGTQVGVTCVIGFHEGTYSTDQKVSEAKRAMQNGASELDMVMNYPWLSEKRYTDVFQDIRAVRLAAKDAILKVILETSQLTADEIIAGCVLSSLAGADYVKTSTGFNGPGASIENVSLMSAVCDSLQSETRVKASGGIRTIEDCVKMVRAGAERLGASAGVKIVNETRLGNRQVDEPMEPTNY,not failed
13,MSSLQGGISLTHIAAGIAVVALIILGVGFYAIYQELASLRSQVEGLNTRYEEISESLEEVQGAFESSRGDIESIASSLESIQDRVSKIEERLGSAATQSDLDAVARELASLTQQLEDLQARIQALEESGAEAGERLDQLAMALQDLQARLASLEERVDEVYASLYFPVTVVDGTGTPVVILERPERIVSMAPSATETLYYVGALDRVVGVDQYSDFPPELNEAKEAGEVEVIGGYWNPSIEAILSLEPDLVVGVASVPNHIQVKKVLSAYGIPVILLPDSSLEDVRESMMIVGKATGEVVGAYEAVLKFDMAVAAAGLLLEGVEPVETAVVVWPNPLFVVGGGTWEHEVIELAGGVNVYGDTQGWPQVSYESLLEADPDVIILMGGHGNSGVTVEGFIEALESQLGEAAWEIDAVASGRIYVLLDEYNDSFARPSPRTVLSIYVLAVLIQPSAFDIQPGDLPSEVSPETLDVLGLLEGRVPEEVLEFLGEALG,failed
14,MSSNNINSIISKIQQKNTATVITVGNYKGGAGKTTNVVLLAYKLAKKGLKVCVLDLDPQSNATKSLLLTKSSLYQDEVVTIEKTLMTGISEKNLDGLEVKIMDNLYLLPSYIDFEDFPKYLYKNTSNQREEDYYLKNIFTPLQGKYDIVLIDVPPMSKAVTRNAVICSDYVLISLQTHERSLSGAESYVEELNKLHNEYDLDLEVVGVLPVIHKNNGSVDQYVMEVAKETFGEDNLFENVVPQMERIKRFDVNGITDKDRHDQKVLNLYDKVSDELLDRINYFEEEKEGAING,not failed
15,MSSPLVLPSDGHYWLKNAHIPPNLVKTKVNFPENFQFPRPWEDLGLYHLEIADGKIKNIVAVGQGEESDLVTDDGVPRVDLSKRMILPCFVDMHTHLDKGHIWGRSPNVDGTFSGAIASTERDAELHHSPEDIYRRMEFALQCSYAHGTAAVRTHIEMAGQKSQIAWQTFQQLRQAWADRLTLQGVAMVTTDYYLGSAGEKLADQMAHGGGILGGVAYAGPQVEAQLTRLMTLAQARNLAIDLHVDENGDRRSRVLHQVAAIALKVGFTGQIVCGHCCSLDVQSPQQVQQTLALVKQANIAIISLPLCNLYLQGRHQPQKPAWRGITKVHAIHAEGIPLVFASDNCRDPFFPFGDHDGLEILNQSVRIGQLDPPYGHWCATVNQTPAQLMGLADYGRLAVNGPADLVIFPARYFSEIFSRPQGDRLVIRKGKPTHKKTPHYQELDDLMGA,failed
16,MSSPVVEIQIWSDLICPWCWIGKRRLERALRNSSLFADIKVRHRAFRLMPELIPLPVIDVLQQRYGGSAEQIVAIQQRIEKIAAEESLIYRLVGTQGADTLQAHRLLYLAHRQGLQEVLLERFYSAYFSEGTPIFDTDTLAPLALDVGLERTAVAALFAGQDFIAEIEDDQRRLQRYGANGVPFFLMDGRIAVNGAQPIEAFSDALAQLNADAASQSAFFLR,failed
17,MSSSSDAPLVATRWVEIGLALFTAALGAIVMYGSQDIGIGWGDSGPEAGYFPFYIGLLLSAASLGNLLLALCRWRALGTSFVARTAFRRVLAVFLPIAAYVAAMPFAGIYLASALFIAWFMWRDRSRDKPYGVPLIVTLSCGAALASYLVFAVWFKVPLDAGILVDLAAFVGSARP,failed
18,MSSSSGNQNSKEHKVAVTHDLGKTNVPEHPKRVVVLELGFIDTLLDLGITPVGVADDNKAKQLINKDVLKKIDGYTSVGTRSQPSMEKIASLKPDLIIADTTRHKKVYDQLKKIAPTIALNNLNADYQDTIDASLTIAKAVGKEKEMEKKLTAHEEKLSETKQKISANSQSVLLIGNTNDTIMARDENFFTSRLLTQVGYRYAISTSGNSDSSNGGDSVNMKMTLEQLLKTDPDVIILMTGKTDDLDADGKRPIEKNVLWKKLKAVKNGHVYHVDRAVWSLRRSVDGANAILDELQKEMPAAKKLEHHHHHH,failed
19,MSSSSSKIVVYAALVGNLLIALSKFIAAYFTNSAAMLSEAIHSVVDSLNEILLLYGLKKSQKPANYRHPFGYGRELYFWAFIVALLVFALGAVVSIYQGVSHILQPEEMKYPLVNYLVLGFAILCEGASWWVAVKNFKKMKGSLGYFEAFKRSKDPTTFTVLFEDSAALIGLIIALIGITAAQFLQIPILDGVASVLIGVVLAVSAFLLARETKGLLLGETADPELRKNVLRIAQDDEAVYSANGVLTEQIGAHQVIASLSLEFKDGLISDEIENCVNRIEAQIKQIHPEIVALFIKPQSNEVWLERMKGRLNQQNGEIVAAKVK,failed
20,MSSSSVIMDFLKYSPQPLQLITRPRHSIHHSTLRSSRRLTTSHNHSTPRSSSSHHHFSPSLDPVAEHHHHQSLDRTLDLVVESPHHHSLDPSLCHQVEFHHHPPLDIILDCQLQSLLDSAINKTLEHKEEMKTLARHSTHYLITWVEYHS,failed
